Assay results as given in patent US20050079613.

T1: GST-MmUbc7, P60605
T1 chain: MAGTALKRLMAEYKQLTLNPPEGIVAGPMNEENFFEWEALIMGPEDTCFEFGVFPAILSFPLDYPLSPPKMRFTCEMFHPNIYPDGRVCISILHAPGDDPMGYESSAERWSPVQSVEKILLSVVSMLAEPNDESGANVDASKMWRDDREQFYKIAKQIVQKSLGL

T2: GST-MmUbc6
T2 sequence (Q9JJZ4 whole entry, looked up): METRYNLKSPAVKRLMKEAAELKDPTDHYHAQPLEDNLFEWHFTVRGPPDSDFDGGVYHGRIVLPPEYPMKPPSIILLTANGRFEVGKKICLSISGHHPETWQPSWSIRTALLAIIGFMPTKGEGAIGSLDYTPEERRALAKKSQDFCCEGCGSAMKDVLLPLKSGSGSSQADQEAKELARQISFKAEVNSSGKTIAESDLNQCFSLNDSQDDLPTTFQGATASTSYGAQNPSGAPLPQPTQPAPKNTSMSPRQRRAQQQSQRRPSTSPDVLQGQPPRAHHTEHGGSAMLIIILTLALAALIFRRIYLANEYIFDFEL

T3: UbCH2, P62256
T3 chain: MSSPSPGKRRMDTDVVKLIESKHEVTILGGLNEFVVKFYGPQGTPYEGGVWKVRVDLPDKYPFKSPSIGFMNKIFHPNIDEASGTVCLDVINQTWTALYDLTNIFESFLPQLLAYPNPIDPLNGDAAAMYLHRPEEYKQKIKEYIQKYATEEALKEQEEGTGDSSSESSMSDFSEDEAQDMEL

B1: GST fusion of the MARCH-I RING-CH domain (protein)
chain: MTSSHVCCNFLNMWKKSKISTMYYLNQDAKLSNLFLQASSPTTGTAPRSQSRLSVCPSTQDICRICHCEGDEESPLITPCRCTGTLRFVHQSCLHQWIKSSDTRCCELCKYDFIMETKLKPLRKWEKLQMTTSERRK
B2: GST fusion of the MARCH-IV RING-CH domain (protein)
chain: WYCYGLCAPAPQMLRHQGLLKCRCRMLFNDLKVFLLRRPPQAPLPMHGDPQPPGLAANNTLPALGAGGWAGWRGPREVVGREPPPVPPPPPLPPSSVEDDWGGPATEPPASLLSSASSDDFCKEKTEDRYSLGSSLDSGMRTPLCRICFQGPEQGELLSPCRCDGSVKCTHQPCLIKWISERGCWSCELCYYKYHVIAISTKNPLQWQAISLTVIEKVQ
B3: GST-ICP0-RING (amino acids 1-241 of ICP0) (protein)
chain: MEPRPGASTRRPEGRPQREPAPDVWVFPCDRDLPDSSDSEAETEVGGRGDADHHDDDSASEADSTDTELFETGLLGPQGVDGGAVSGGSPPREEDPGSCGGAPPREDGGSDEGDVCAVCTDEIAPHLRCDTFPCMHRFCIPCMKTWMQLRNTCPLCNAKLVYLIVGVTPSGSFSTIPIVNDPQTRMEAEEAVRAGTAVDFIWTGNQRFAPRYLTLGGHTVRALSPTHPEPTTDEDDDDLDD

Key:
[1] = biological target: three human E2 enzymes UbCH2, UbCH3 and UbCH5a (at least one of these three enzymes)
[2] = biological target: E2 enzymes tested
[3] = biological target: T1, GST-MmUbc7, P60605
[4] = biological target: T2, GST-MmUbc6
[5] = biological target: GST-UbCH5a, P51668
[6] = biological target: T3, UbCH2, P62256

Sequence of GST-UbCH5a, P51668 (P51668 whole entry): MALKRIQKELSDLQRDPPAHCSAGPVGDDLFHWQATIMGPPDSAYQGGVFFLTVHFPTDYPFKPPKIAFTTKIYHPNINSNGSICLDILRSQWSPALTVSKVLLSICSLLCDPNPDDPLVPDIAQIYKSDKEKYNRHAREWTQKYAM

Row | Protein | formation of high-molecular weight ubiquitin complexes in vitro (anti-ubiquitin blot) [1] | formation of high-molecular weight ubiquitin complexes in vitro (anti-ubiquitin blot) [2] | promotion of ubiquitination in vitro [3] | promotion of ubiquitination in vitro [4] | formation of high-molecular weight ubiquitin complexes in vitro (anti-ubiquitin blot) [5] | formation of high-molecular weight ubiquitin complexes in vitro (anti-ubiquitin blot) [6] | formation of high-molecular weight ubiquitin complexes in vitro (anti-ubiquitin blot) [4]
1 | B1 | The RiNG-CH-GST fusion proteins of all four MARCH-proteins tested were able to catalyze the formation of high-molecular weight molecular ubiquitin complexes in the presence of at least one of these three enzymes | MARCH-I was less active with most E2 enzymes tested with the notable exception of UbCH5a | Whereas MARCH-II was able to function with both proteins, MARCH-I was only active with MmUbc6 | MARCH-I was only active with MmUbc6 | MARCH-I was less active with most E2 enzymes tested with the notable exception of UbCH5a |  | 
2 | B2 | The RiNG-CH-GST fusion proteins of all four MARCH-proteins tested were able to catalyze the formation of high-molecular weight molecular ubiquitin complexes in the presence of at least one of these three enzymes |  |  |  |  | MARCH-IV was mostly active with UbCH2 | 
3 | B3 |  |  |  |  | ICPO promoted the formation of high-molecular weight complexes in the presence of the E2 enzyme ubCH5a |  | The ICP0-RING domain also showed some activity with the murine ER-bound E2 enzyme MmUbc6
